Test results published in patent US20180155451A1 (published 2018).
Residue numbers refer to the chain shown, from its start.

T1: FcγRIIa H type extracellular domain with C-terminal His tag (human, UniProt P12318 34-217)
T1 construct: extracellular domain; also called FcgRIIa H; FcgRIIaH; not shown: His tag at the C terminus
T1 sequence (looked up): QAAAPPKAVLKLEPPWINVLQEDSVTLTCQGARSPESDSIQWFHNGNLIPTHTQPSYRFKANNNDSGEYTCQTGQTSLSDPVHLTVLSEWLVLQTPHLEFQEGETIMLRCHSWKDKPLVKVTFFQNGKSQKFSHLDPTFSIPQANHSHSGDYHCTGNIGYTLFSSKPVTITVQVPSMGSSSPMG

T2: FcγRIIa R type extracellular domain with C-terminal His tag (human, UniProt P12318 34-217)
T2 construct: extracellular domain; also called FcgRIIa R; FcgRIIaR; not shown: His tag at the C terminus
T2 sequence (looked up): T1 sequence (looked up) with H134R

T3: FcγRIIb extracellular domain with C-terminal His tag (human, UniProt P31994 43-217)
T3 construct: extracellular domain; also called FcgRIIb; 2b; not shown: His tag at the C terminus
T3 sequence (looked up): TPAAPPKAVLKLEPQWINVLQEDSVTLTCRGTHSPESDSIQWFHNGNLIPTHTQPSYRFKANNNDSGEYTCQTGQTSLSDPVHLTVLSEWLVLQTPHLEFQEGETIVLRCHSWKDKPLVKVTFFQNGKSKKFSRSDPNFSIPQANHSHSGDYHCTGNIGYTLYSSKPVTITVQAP

B1: H240-FA009/H240-FB001/L73-k0 (antibody, human IgG1, kappa)
heavy 1: QDQLVQSGAEVKKPGASVKVSCKASGFNIKDTYIQWVRQAPGQGLEWMGRIDPLRKQTKYREKFEGRVTITADTSTNTAYMELSSLRSEDTAVYYCVRSGREFDYWGQGTLVTVSSASTKGPSVFPLAPSSKSTSGGTAALGCLVKDYFPEPVTVSWNSGALTSGVHTFPAVLQSSGLYSLSSVVTVPSSSLGTKTYICNVNHKPSNTKVDKKVEPKSCDKTHTCPPCPAPEYYWGPSVFLFPPKPKDTLMISRTPEVTCVVVDVSDEEPEVKFNWYVDGVEVHNAKTKPREEQYNATYRVVSVLTVLHQDWLNGKEYKCKVSNKALPAPIEKTISKAKGQPREPQVYTLPPSRKEMTKNQVSLTCLVKGFYPSDIAVEWESNGQPENNYKTTPPVLDSDGSFFLYSKLTVDKSRWQQGNVFSCSVMHEALHNRYTQKSLSLSP
heavy 2: QDQLVQSGAEVKKPGASVKVSCKASGFNIKDTYIQWVRQAPGQGLEWMGRIDPLRKQTKYREKFEGRVTITADTSTNTAYMELSSLRSEDTAVYYCVRSGREFDYWGQGTLVTVSSASTKGPSVFPLAPSSKSTSGGTAALGCLVKDYFPEPVTVSWNSGALTSGVHTFPAVLQSSGLYSLSSVVTVPSSSLGTQTYICNVNHKPSNTKVDKKVEPKSCDKTHTCPPCPAPELLGGPSVFLFPPKPKDTLMISRTPEVTCVVVDVSHEEPEVQFNWYVDGVEVHNAKTKPREEQYNSTYRVVSVLTVLHQDWLNGKEYKCKVSNDALPMPIEETISKAKGQPREPQVYTLPPSREEMTKNQVSLTCLVKGFYPSDIAVEWESNGQPENNYKTTPPVLDSDGSFFLYSKLTVDKSRWQQGNVFSCSVMHEALHNHYTQESLSLSP
light: DIQMTQSPSSLSASVGDRVTITCRASQDIHKYIAWYQQKPGQAPRLLIQYTSTLQPGVPSRFSGSGSGTDYTFTISSLQPEDIATYYCLQYEQLRTFGGGTKVEIKRTVAAPSVFIFPPSDEQLKSGTASVVCLLNNFYPREAKVQWKVDNALQSGNSQESVTEQDSKDSTYSLSSTLTLSKADYEKHKVYACEVTHQGLSSPVTKSFNRGEC
notes: Heterodimerized anti-EREG IgG1 antibody; A chain altered from H240-AK072, B chain altered from H240-BH076
B2: H240-FA024/H240-FB065/L73-k0 (antibody, human IgG1, kappa)
heavy 1: B1 heavy 1 with I198T, E271K, M357K
heavy 2: B1 heavy 2 with G136E, G137S, S191N, L192F, I198T, N202D, K213T, K287E
light: B1 light
notes: as for B1
B3: H240-FA030/H240-FB084/L73-k0 (antibody, human IgG1, kappa)
heavy 1: B1 heavy 1 with I198T, E271K
heavy 2: B1 heavy 2 with G136E, G137S, K146E, S191N, L192F, I198T, N202D, K213T, K287E, N383E
light: B1 light
notes: as for B1
B4: H240-FA030/H240-FB083/L73-k0 (antibody, human IgG1, kappa)
heavy 1: B1 heavy 1 with I198T, E271K
heavy 2: B1 heavy 2 with G136E, G137S, K146E, S191N, L192F, I198T, N202D, K213T, K287E
light: B1 light
notes: as for B1
B5: H240-FA024/H240-FB084/L73-k0 (antibody, human IgG1, kappa)
heavy 1: B1 heavy 1 with I198T, E271K, M357K
heavy 2: B1 heavy 2 with G136E, G137S, K146E, S191N, L192F, I198T, N202D, K213T, K287E, N383E
light: B1 light
notes: as for B1
B6: H240-FA009/H240-FB021/L73-k0 (antibody, human IgG1, kappa)
heavy 1: B1 heavy 1
heavy 2: B1 heavy 2 with K287E
light: B1 light
notes: as for B1
B7: H240-FA030/H240-FB082/L73-k0 (antibody, human IgG1, kappa)
heavy 1: B1 heavy 1 with I198T, E271K
heavy 2: B1 heavy 2 with G137E, K146E, K287E, N383E
light: B1 light
notes: as for B1
B8: H240-FA009/H240-FB017/L73-k0 (antibody, human IgG1, kappa)
heavy 1: B1 heavy 1
heavy 2: B1 heavy 2 with G136E, N202D
light: B1 light
notes: as for B1
B9: H240-FA009/H240-FB047/L73-k0 (antibody, human IgG1, kappa)
heavy 1: B1 heavy 1
heavy 2: B1 heavy 2 with N383E
light: B1 light
notes: as for B1
B10: H240-FA009/H240-FB020/L73-k0 (antibody, human IgG1, kappa)
heavy 1: B1 heavy 1
heavy 2: B1 heavy 2 with K146E
light: B1 light
notes: as for B1
B11: H240-FA009/H240-FB033/L73-k0 (antibody, human IgG1, kappa)
heavy 1: B1 heavy 1
heavy 2: B1 heavy 2 with G137E
light: B1 light
notes: as for B1
B12: H240-FA009/H240-FB015/L73-k0 (antibody, human IgG1, kappa)
heavy 1: B1 heavy 1
heavy 2: B1 heavy 2 with G136E
light: B1 light
notes: as for B1
B13: H240-FA009/H240-FB016/L73-k0 (antibody, human IgG1, kappa)
heavy 1: B1 heavy 1
heavy 2: B1 heavy 2 with N202D
light: B1 light
notes: as for B1

Columns and labels:
[1] = biological target: T4, FcγRIIIa F type extracellular domain with C-terminal His tag (human, UniProt P08637 17-208); test: SPR (Biacore), antibody captured on chip, soluble FcgR as analyte; experiment 2
T4 construct: extracellular domain; also called FcgRIIIa F; FcgRIIIaF; not shown: His tag at the C terminus
Experimental: (§1) Antibodies of interest were analyzed for the interaction to FcgR according to the method described in Reference Example 8.
(§2) Analysis of interaction between obj ective antibody and the FcγR was carried out using Biacore T100 (GE Healthcare), Biacore T200, Biacore A100, and Biacore 4000. HBS-EP+ (GE Healthcare) was used as the running buffer, and the measurement temperature was set to 25° C. Chips produced by immobilizing the antigen peptide by the amine coupling method to a Series S sensor Chip CM5 (GE Healthcare), chips produced by allowing preliminarily biotinylated antigen peptides to interact with and immobilize onto a Series S Sensor Chip SA (certified) (GE Healthcare), chips produced by immobilizing Protein L (ACTIGEN, BioVision) to Series S Sencor Chip CM5 (GE Healthcare), or chips produced by immobilizing Protein A/G (Thermo Scientific) to Series S Sencor Chip CM5 (GE Healthcare) were used. Antibodies of interest were captured onto these chips, and allowed to interact to each FcγR diluted with running buffer. To regenerate and repeatedly use the chip, the antibodies captured onto the chip were washed off by reacting 10 mM glycine-HCl, pH 1.5.

[2] = biological target: T1, FcγRIIa H type extracellular domain …; test: as above
Experimental: as §1, §2

[3] = biological target: T5, FcγRIa extracellular domain with C-terminal His tag (human, UniProt P12314 16-292); test: as above
T5 construct: extracellular domain; also called FcgRI; FcgRIa; not shown: His tag at the C terminus
Experimental: as §1, §2

[4] = biological target: T2, FcγRIIa R type extracellular domain …; test: as above
Experimental: as §1, §2

[5] = biological target: T3, FcγRIIb extracellular domain with …; test: as above
Experimental: as §1, §2

[6] = biological target: T6, FcγRIIIa V type extracellular domain with C-terminal His tag (human, UniProt P08637 17-208); test: as above
T6 construct: extracellular domain; also called FcgRIIIa V; FcgRIIIaV; not shown: His tag at the C terminus
Experimental: as §1, §2

[7] = biological target: T4, FcγRIIIa F type extracellular domain …; test: SPR (Biacore), antibody captured on chip, soluble FcgR as analyte; experiment 1
Experimental: as §1, §2

[8] = biological target: T1, FcγRIIa H type extracellular domain …; test: as above
Experimental: as §1, §2

[9] = biological target: T5, FcγRIa extracellular domain with …; test: as above
Experimental: as §1, §2

[10] = biological target: T2, FcγRIIa R type extracellular domain …; test: as above
Experimental: as §1, §2

[11] = biological target: T3, FcγRIIb extracellular domain with …; test: as above
Experimental: as §1, §2

[12] = biological target: T6, FcγRIIIa V type extracellular domain …; test: as above
Experimental: as §1, §2

T4 sequence (P08637 17-208): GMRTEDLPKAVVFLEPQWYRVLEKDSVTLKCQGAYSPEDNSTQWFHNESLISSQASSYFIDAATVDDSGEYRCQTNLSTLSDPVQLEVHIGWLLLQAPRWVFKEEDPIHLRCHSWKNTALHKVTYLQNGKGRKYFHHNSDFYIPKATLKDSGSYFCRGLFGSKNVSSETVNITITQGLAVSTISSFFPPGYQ
T6 sequence (P08637 17-208 F176V): as the sequence (P08637 17-208) above, with F160V counted along it
T5 sequence (P12314 16-292): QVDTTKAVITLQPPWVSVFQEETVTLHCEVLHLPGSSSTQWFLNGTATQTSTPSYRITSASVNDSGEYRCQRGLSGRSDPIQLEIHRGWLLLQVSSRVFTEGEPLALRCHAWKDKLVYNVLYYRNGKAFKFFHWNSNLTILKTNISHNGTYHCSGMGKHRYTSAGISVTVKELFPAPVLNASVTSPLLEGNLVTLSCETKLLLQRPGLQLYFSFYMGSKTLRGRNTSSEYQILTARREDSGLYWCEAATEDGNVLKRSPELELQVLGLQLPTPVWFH

Row | Binder | Kd [1] [nM] | Kd [2] [nM] | Kd [3] [nM] | Kd [4] [nM] | Kd [5] [nM] | Kd [6] [nM] | Kd [7] [nM] | Kd [8] [nM] | Kd [9] [nM] | Kd [10] [nM] | Kd [11] [nM] | Kd [12] [nM]
1 | B1 | 4.3 | 69 | 0.17 | 250 | 1300 | 1.1 |  |  |  |  |  | 
2 | B2 |  |  |  |  |  |  | 5 | 95 | 0.15 | 300 | 1700 | 1.4
3 | B3 |  |  |  |  |  |  | 4.2 | 88 | 0.12 | 270 | 2500 | 1.3
4 | B4 |  |  |  |  |  |  | 3.9 | 82 | 0.081 | 280 | 1500 | 1.2
5 | B5 |  |  |  |  |  |  | 4.6 | 79 | 0.095 | 250 | 1500 | 1.2
6 | B6 | 3.7 | 70 | 0.051 | 280 | 2200 | 0.78 |  |  |  |  |  | 
7 | B7 |  |  |  |  |  |  | 4.3 | 88 | 0.092 | 300 | 1900 | 1.3
8 | B8 | 3 | 61 | 0.11 | 230 | 1400 | 0.84 |  |  |  |  |  | 
9 | B9 | 4.4 | 74 | 0.05 | 270 | 1700 | 1.1 |  |  |  |  |  | 
10 | B10 | 3.9 | 64 | 0.12 | 250 | 1400 | 1.1 |  |  |  |  |  | 
11 | B11 | 3.4 | 80 | 0.12 | 310 | 1600 | 1 |  |  |  |  |  | 
12 | B12 | 4.2 | 84 | 0.093 | 330 | 1800 | 1.3 |  |  |  |  |  | 
13 | B13 | 4.4 | 70 | 0.13 | 250 | 1400 | 1 |  |  |  |  |  | 
